Results: the domain aggregation screens of Martell et al. (2025)

assay: soluble fraction after stress (log2 fold change); higher = more stays soluble; pooled small domains, quantitative proteomics; details: stress: pH 4
Method in brief: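 High-throughput quantitative proteomics was run on pooled custom libraries of small protein domains following pH 4 stress. Fold changes are on a log2 scale; higher values mean more of a domain remained soluble. The fold change in soluble amount is taken as a measure of aggregation propensity.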

Sequence | soluble fraction (log2)
HMVILPGEKMVVKIVQPGKEKGQGVGYLADGTMIVVDSGDKMIGQDVPTEITRVFQTVAGKMLFAVPVD | -0.255
HMEDKIEESLEDNISELFAKTKDKYTLINDLYSKGYTVEELSRFSGLPSGEVRLVISLNSKN | -0.183
HMQETMTNDEVISLTKAGLSSSIIIGKIRSSATNFDLSTDSLIKLKQAGVSDETVAAMLEAKS | 0.181
HMSLSDADVERLLEVAIDIESLEEREGLYYQANESEPYSGWGKLMYDSGQVERLVPYKDGRWEGLWTIW | -1.18
HMNTLSPVRILAILDGRSSMAEWQLAEELGVSIDNLSEILNKMSTDGQIRLVPSEDGRMVVP | -0.0347
HMLGFELVGIRGNNPESTIIILERDDYRLVEQGQNINSSVIFSHIDGSRAYFFDGQTYTFLDI | -2.77
HMSDDAVVRMRVPEDALGLSLRETDFRQRFGVYVLAIETRDGKLLAPPDPQRPLGKDDVLVVIQKR | -0.279
HMQERTVVKGVVVQVSRDEAYVDIGYKQEIPVSKRDLAVPAPDDARDVVKVGDEIDVYIKSLGGDNGG | -0.0346
HMKIELSDNEKIIYDLLSSQHVLLSEIKDKAGLSNKAWDKSTKSLRKLGLIAVEKKDDDIYISKL | 0.247
HMETSVDEVYKKIQAYIEAEDKHKPLSDQKLAEQLQSDGLKVSRRTVAKYREKLNIASSSKRKR | 0.379
HMESWNRARILEKIRELHAQGVALNNASMRRLGYRGMMEAAARPQNFGSWEAAVRAAGIDYDRV | 0.22
HMFSMKDFGQRLRQLRKERGLTQGDLARLAKIDIMQVSRYERGLGLPSLETAIALARVLETSTDLLFLG | -0.0792
HMRHTRQRQAVLDALVRSGQALSPQDLLGQAKSAVPSLNLSTVYRQIKGLQDAGQIVRVELPGQPPRFEM | -0.0347
HMGLNNVSDILRLDFNSFKKKFDKLPSGYKNSVVEQAALMIKSGELDSIKIKDYIEKSMGIELDI | -0.0393
HMNSTNYQVIITANGGLNIRAGASTAYARIGGYAKGTVVTILAESNGFGKTDKGWISLNYTSKDLD | 0.148
HMTSPQGIERFLASGVIEGVGKAMAARIVAVFGGQTLEIIEKQPHRLREVRGIGVKTAEKIHASYQEKA | -0.203
HMQSFIEELLPVVDNFERSLAVVDPSDEIKNFLKGYEMIYNQLMEVLKSQGVEVIKTEGEEFDPNFHQA | -0.776
HMGEVQALIPGLVSKLFVVEGESVKIGQKLIILEAMKMENEIASPINGTIKKIYIKSGDKIDKGSIIMEIT | -0.0106
HMEIEIPEELQNKFAEIPELKTAFESLTPGRQRAYVLYFSQPKQSKTREARIEKYIPHILDGKGMN | 0.0591
HMKIDELKAYLFQSVRVKNPHTQEYDTLKIIELNYYQDKIKAKLKNSDDDYITEMIFESIKHLQNFLG | -1.98
HMGSNLSFDLSQIIASRYQEKAAELGLTAPSLARTDLSPQEQATAEVVARAIIADYYDQRVAPFNDLIPQ | -1.54
HMGGEAEVLQSIDEGREVEVRSVAADGSAEVIYRGARWRARAAVGSLAAGRWTIGRVDGTELVLEK | 0.215
HMREQAHEVAGKLGYPVMVKASAGGGGKGIRIVRTEDELDQAFEAAQSETKAAFGDDQMYMEKVI | -0.176
HMEALTPREREVLTLMGQGRSNAEIATLLSIAPRTAKVHVQNILSKLGATNRTEAVSLAVRQGLIS | -0.18
HMQRSVEDVFVQLRNGMDTYDMTQIEDALRILHGMELSTAQRDLLDKVQEAYNDLEYETGAALLAGFERIK | -0.981

Sequence | soluble fraction (log2)
HMSFDGFSDRLKSVLNSGKYTQKEAAEKINISEYSFTKYLNGRIPQTEILYKIARLYNKSMEWLLTGKDPI | -0.158
HMQLEPLITSVIPVNFAKAGEVATTIKGKEVGLVSDRGSITAESRTNVLIVKDIKKNVDDISAMVKRLD | -0.0177
HMTSKIIIGDSYSKINKLLGEPENMKKRKFLDNEYLMVLYSINKKNYRLYFKDNILFELEDI | -0.582
HMFRPRIEPGAKGSYVLEVQKRLAKLGYEHAGFDGVYGPGTERAIMQLQRDKGLPVTGIVDMRTYEALGLF | ≥ 0.43
HMIQVNKTQALIIEEMRDNPNITLLELQKTLSLGRTAIQNNVSSLRKRQIIKRVGSNKNGYWEVTDK | 0.22
HMKAMIIVMKPGADMATISKVLKTIETNGFKPHLSKGEETTVIGVIGDERKLNPDIFSTLEGVERIVPVA | 0.279
HMNLNESVELGQELLSQALAQLGIRGELSPSTIDKLLAESSAKSMEELYADIGIGKRMPALVARHIFGLMD | -0.491
HMVEPTDFTYLKAEVETAKALKQADYTVATWKSFAGELAEAEEVIAKTDASQAEVNEALSHLQAAEKELV | 0.215
HMGIAFDYDAGRFDQVPPNLVEKWQQAYPAVDVLSELRRMEAWASANPVNRKSNWQRFIVNWLTRAQDRAG | -0.16
HMRKDRKVLMERGRHIFNDLLEKEGIVATNQLMTKLLASHHLRNRDELYLMLANDDISLSSKEIKDLS | 0.22
HMLSVRNRMSDVLKSLDDGEFHRFESLFNLEEGRLGVVVTFLAMLELAKEMLVEIVQNESLGPIYLKSR | 0.144
HMVDPWLEQVHRASAAYATAHGSARIPTTHPDLGWKVVRVRQRHRKGLLSDEWVAKFEALPGWTWEPK | -0.471
HMDGYVPAERIASEVGVSARTITREMHGLEMTLMPYGIALLRRTGAGFMLAGTAKALADLRKHMTEDADTQ | 0.167
HMQVRVERSRDKVVISGVNYYIHPVRKGETVYSIARAYGITTQDLVRENPSAAEGLKEGQSIRIPERLVD | 0.22
HMAAIPATVDEETYRRLKPMLKQYGILYHEFKPLRSGKKGAVELIFMEKDLALVQELLSRLKKEK | -0.0159
HMFDLATVKRVAEEAGMKFTIHPVELRAAHPNTAVLTLKSKAGRILVLKAASVGGGRIRVTEIDGVPAD | 0.219
HMDWPDDETIARIYALIKSDISSQARKVMELRFSEGMPFARIAAAMGISETAVYRHLSHALTVIRQKLN | -1.24
HMTDYREILRLLSLGLSRTQIADSLNVSRTTVIHTLQRAVAQELDWQTAEGMSDRELVAKLFPV | -0.564
HMPHTDATDKQIIALILETLKDGQKHSVSEMTFPGIPREKTAQLLHQMIEEETVRIQNGVLFLPH | -0.118
HMNPNPFVNLSPRELEVLNLLFKGYGVLEISNELNIGQTTASTFKSRILKKTSTHSVVELIKLAEQYGFIP | -0.847
HMSTTSYTQFMEDAKAGKIARVDIKGREITVTPTEGSRYVITSPGDLWMVDDLRKDGVQVYGPP | 0.137
HMQGEKDDLWREVLDNPDAWWDNRERKNAPGGNPRYPDFKHKDSQTPLWIESRDTPQWAIDALL | -0.406
HMETKQYIVEAQDEGTRLDVYLTKELGQSRSYVQSLVKEGHVQVNGKTGKSNLKLSSSSEILVTIPEVQ | 0.0538
HMGRMSLDEAKAVILPIGEHKGHTMGEVLAIKPGLIDFYASQKFNSGKYPYLKEAAQVILENQG | 0.173
HMQPQIDFEIDVEVRASSLRIVAAPNSDVLVATVGRGEHVVQLTYPKDGWVMIRTADDRVGFVPESLLL | -0.254

Sequence | soluble fraction (log2)
HMDINLSENLVRLRHAKKLTQEQLADFLGVTKASVSKWETRQSLPDILLLPRLAAFYGVTVDELIGYEP | ≥ 0.43
HMQLPTNAAAILRYLSSGAVKGVGSATAVRIVEKFGEETLNILEQDPLRLAEIRGISRDKAKKIGEDFASQ | 0.0714
HMDGAPVTVIKNGEVDVATTMRVGLSASELMFKLRAAGVDEVQIVHRAVLEQNGQLTIIKYGEE | -1.2
HMGLNEGLNEGQQKVIQHIQENEGIKVKEISLKLNMPIDTVDRHIRVLKNLNLIERRGSRKTGGYFISN | 0.111
HMANLDSLIKKVGQYAKDKQSISVDGIKKDLSIDKDMVKEALAELLKIGVVDKPDEAGQYKVIM | 0.0802
HMKYGPSTVAVLTVVRESEMGAFLDAETGRTNDDILLHKTQQTEPVHIGDQVKVFLYLDPKHRLTASMRVP | -1.24
HMITVPKVINMSETQARQTLDALGLNVTLSATQVMNDKIPYGYVAAQSYSAGKEVPAGTTIELTMSIGL | 0.0236
HMRKPLDQSWVPDDDAMKILTNSGIEKEFIKNEIPEFILYWSDKGEISDSWNTKFISQIRRQWAKNQ | -0.465
HMALLSDEERIATVFAARLGGYSHQEIYKLLQDRFGPSLPAAYSEKSVLTDLQTALSQVPSL | -1.41
HMTSTEQEILIEHMVDRLPALRKKYGISQTELGEKIGLSRQTISAIERKTTPLTWTTMLAILMFFT | -0.425
HMNSRTLAYSDFIRKVDKGEVSAVVIDGEQVQVQTKDGQTFVTIQPQSEQMNDKLVEQLIAKDISVKAERQ | 0.0565
HMAQTTKWREIHKVKRKETIFGIARDNGLTVDELIEANPEMTKPGYELKKGDFIYIPFPSKNIDTNAGTQT | -0.627
HMDRVSEITLTRLRDYAADGQVRTATLTHRTNVVTGTLRDGRRFSAGVPPMYGDELTTFLLDNGVRVDSDN | -0.276
HMINYYELLKLDMNAAHEEINDAIKLESEKNTIPEDQIRTMKSIFFNTEFKKEYDQRLMNFLLT | -1.28
HMELDMTFGEKIQKLRKESGLSQEELSYQLGVSRQAISKWERDSGYPETEKIVRMSKIFDVTLDYLLNE | -1.06
HMLPYKGTVAVSLAVLHKAVGVGTADMLKAVGTLRQGTEVTVTGRNGPFAQLKNGLWMKESFLE | 0.193
HMADLIVFTTDANKEKKVDDETYFYLDVVSDGKLVENYELTEKQYNYIKDLGVGEYVYNEKGKLDSYTAFT | -1.12
HMSATQDAAIAVRIRDILSELDGYEDVTVTVTSGIVTMRGTTLDSEKIARLNDLTGRVEGVVAIENSVTET | -2.31
HMTEKQYIYSIGDRVNIGTDEFEIVNINEKEVSIADVTFPMLVKQISYEEFDRKVKENPFNDHLII | -1.25
HMETTVPNVLNHNISTGEILLKENNLNFRIQYIPSNKDEAVGTIINSVPTSGEKVKFGTVVDLKVL | -0.0719
HMVNTVEVQGNTIYSAEEIRSASGIQKGDNLFTLNKEAAAGSIKASLPYVETVSIIRFLPDKIVIEVKE | -0.977
HMSAEDYLERIHELIESKGTAHVADIAQSLGVGKPSVTSMVQKLADEGYLNYEKYRSLTLTDSGRSIA | 0.0599
HMPSYYKELQNYSPENPVVKKRKVHPDVVNAIKYLAEITDGNPMLIKAYAQMILAHVFTTMPLIDKSV | 0.22
HMPKLVGEVMQTLDALRREKGLSLLLVEQNARAALGVVDRVYVLERGRVVFEGSAKEAMEDQDVMEFYLG | 0.0193
HMGEMTDFETLRDMYLTGQIWNIDDLIEANGVEGRIVRRGTNYIAFNDRDGKVHKAWLHEVTINE | -1.39
